From US20250326818A1 (UNIVERSIT T BASEL, published 2025)

Assays:
Assay in all cases: BLI (Octet), biotinylated CD123 ECD captured on streptavidin tips, hIL3 as analyte, level at 250 s normalised to loading
CD123 ECD S59P = biological target: T1, CD123 ECD S59P (human, UniProt P26951 19-305)
T1 construct: Recombinant ECD
T1 sequence: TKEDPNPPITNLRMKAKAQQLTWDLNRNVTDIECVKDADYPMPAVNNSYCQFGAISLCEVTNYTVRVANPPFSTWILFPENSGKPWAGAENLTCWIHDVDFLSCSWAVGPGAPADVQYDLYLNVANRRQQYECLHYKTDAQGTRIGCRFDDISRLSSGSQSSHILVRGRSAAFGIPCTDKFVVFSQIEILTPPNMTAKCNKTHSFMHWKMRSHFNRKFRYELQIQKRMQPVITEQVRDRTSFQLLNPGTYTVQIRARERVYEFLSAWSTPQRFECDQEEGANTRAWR
Description: (§1) Binding of hIL3 (SinoBiological, PN: 11858-H08H) (analyte) to CD123 ECD wt. and variants (ligands) was performed using Streptavidin capture biosensor (SA) (Sartorius, PN: 18-5019). CD123 ECD wt. and variants were biotinylated using Biotinylation kit Type B (Abeam, PN: ab201796) following manufacturer instructions. Biotinylated CD123 ECD wt. and variants (ligands) were captured on SA tips for 1000 s to achieve a nm shift of 1.5 to 2 nm. Analyte hIL3 was titrated at 7 concentrations from 500 to 7.8 nM. Association to analyte was monitored for 300 s and dissociation for 120 s. Buffer only well was used as reference. No regeneration was performed, and a new set of tips was used for each biotinylated captured ligand. Data were analyzed using the Octet Data Analysis software HT 12.0. Due to the fast on/off nature of the interaction data were analyzed using Steady state analysis. Qualitative representation in FIG. 11 binding level were taken at 250 s association for all concentrations.

CD123 ECD S59E = biological target: T2, CD123 ECD S59E (human, UniProt P26951 19-305)
T2 construct: Recombinant ECD
T2 sequence: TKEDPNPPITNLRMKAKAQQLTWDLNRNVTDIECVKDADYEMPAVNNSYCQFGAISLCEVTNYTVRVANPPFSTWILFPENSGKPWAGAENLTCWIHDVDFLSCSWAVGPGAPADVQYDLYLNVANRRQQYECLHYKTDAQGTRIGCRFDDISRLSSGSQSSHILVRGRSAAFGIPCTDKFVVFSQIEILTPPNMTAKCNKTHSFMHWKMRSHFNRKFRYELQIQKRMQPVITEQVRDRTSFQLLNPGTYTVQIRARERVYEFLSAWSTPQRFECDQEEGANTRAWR
Description: as §1

CD123 ECD S59R = biological target: T3, CD123 ECD S59R (human, UniProt P26951 19-305)
T3 construct: Recombinant ECD
T3 sequence: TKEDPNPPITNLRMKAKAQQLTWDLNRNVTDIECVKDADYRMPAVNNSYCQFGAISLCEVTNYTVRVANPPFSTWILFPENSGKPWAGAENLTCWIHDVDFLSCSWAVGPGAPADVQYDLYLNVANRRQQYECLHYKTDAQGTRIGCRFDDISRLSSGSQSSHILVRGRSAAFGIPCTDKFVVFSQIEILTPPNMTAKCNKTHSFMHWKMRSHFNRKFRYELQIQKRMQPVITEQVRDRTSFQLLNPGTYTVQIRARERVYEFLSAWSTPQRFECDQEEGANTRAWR
Description: as §1

CD123 ECD R84E = biological target: T4, CD123 ECD R84E (human, UniProt P26951 19-305)
T4 construct: Recombinant ECD
T4 sequence: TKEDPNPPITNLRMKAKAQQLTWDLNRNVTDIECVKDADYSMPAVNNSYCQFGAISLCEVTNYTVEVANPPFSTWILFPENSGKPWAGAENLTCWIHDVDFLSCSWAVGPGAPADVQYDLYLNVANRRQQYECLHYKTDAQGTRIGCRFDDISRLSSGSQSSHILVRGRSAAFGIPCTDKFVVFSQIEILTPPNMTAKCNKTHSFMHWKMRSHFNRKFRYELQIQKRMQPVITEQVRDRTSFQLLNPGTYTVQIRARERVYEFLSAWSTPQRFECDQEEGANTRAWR
Description: as §1

CD123 ECD wt = biological target: T5, CD123 ECD wt (human, UniProt P26951 19-305)
T5 construct: Recombinant extracellular domain; Biotinylated when captured for the hIL3 assay; also called CD123_WT; recombinant wildtype CD123
T5 sequence: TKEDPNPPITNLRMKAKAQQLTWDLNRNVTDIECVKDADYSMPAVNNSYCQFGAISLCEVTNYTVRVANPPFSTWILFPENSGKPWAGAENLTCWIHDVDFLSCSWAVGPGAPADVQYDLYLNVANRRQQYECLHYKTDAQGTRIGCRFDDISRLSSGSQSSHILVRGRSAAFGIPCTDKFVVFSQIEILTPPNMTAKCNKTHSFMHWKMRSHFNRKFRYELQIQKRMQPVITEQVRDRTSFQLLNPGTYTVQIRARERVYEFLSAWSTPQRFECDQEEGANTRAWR
Description: as §1

CD123 ECD E51K = biological target: T6, CD123 ECD E51K (human, UniProt P26951 19-305)
T6 construct: Recombinant ECD
T6 sequence: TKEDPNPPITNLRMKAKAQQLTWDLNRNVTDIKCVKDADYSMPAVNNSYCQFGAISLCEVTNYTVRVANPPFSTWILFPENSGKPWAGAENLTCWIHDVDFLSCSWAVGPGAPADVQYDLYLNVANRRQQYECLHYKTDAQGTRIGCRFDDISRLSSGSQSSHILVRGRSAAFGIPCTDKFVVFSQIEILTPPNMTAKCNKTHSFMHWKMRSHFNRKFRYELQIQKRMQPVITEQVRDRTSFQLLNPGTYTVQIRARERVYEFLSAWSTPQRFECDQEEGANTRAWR
Description: as §1

Measured: binding result

B1: hIL3 (ligand, human, UniProt P08700 20-152, looked up)
chain: APMTQTTPLKTSWVNCSNMIDEIITHLKQPPLPLLDFNNLNGEDQDILMENNLRRPNLEAFNRAVKSLQNASAIESILKNLLPCLPLATAAPTRHPIHIKDGDWNEFRRKLTFYLKTLENAQAQQTTLSLAIF
notes: also called Interleukin-3
binds: CD123 ECD S59P | CD123 ECD S59E | CD123 ECD S59R | CD123 ECD R84E | CD123 ECD wt | CD123 ECD E51K
